# Patent US10385103B2, “Cell-permeable (ICP)-SOCS3 recombinant protein and uses thereof” (CELLIVERY THERAPEUTICS, INC., priority 2014, dated 2019)
# B1: HM165S3B: His-tagged recombinant protein of aMTD165, human SOCS3 and solubilization domain B; prototype improved cell-permeable SOCS3 (protein)
# chain: MGSSHHHHHHSSGLVPRGSHMALAVPVALAIVPVTHSKFPAAGMETSRPLDTSLRLKTFSSKSEYQLVVNAVRKLQESGFYWSAVTGGEANLLLSAEPAGTFLIRDSSDQRHFFTLSVKTQSGTKNLRIQCEGGSFSLQSDPRSTQPVPRFDCVLKLVHHYMETPPPGAPSFPSPPTEPSSEVPEQPSAQPLPGSPPRRAYYIYSGGEKIPLVLSRPLSSNVATLQHLCRKTVNGHLDSYEKVTQLPGPIREFLDQYDAPLGSMAEQSDKDVKYYTLEEIQKHKDSKSTWVILHHKVYDLTKFLEEHPGGEEVLGEQAGGDATENFEDVGHSTDARELSKTYIIGELHPDDRSKIAKPSETL
# modifications: Amino acid sequence of HM165S3B
# Legend:
# [1] = tested on: HCCs (Hep3B, HepG2, Huh7 and SK-HEP-1); assay: Inhibition of cell cycle progression (PI staining, flow cytometry); type: cell-based, human; conditions: 10 uM, 8 hrs
# Description: To further determine the effect of iCP-SOCS3 on the tumorigenicity of hepatocellular carcinoma cells, we subsequently investigated whether iCP-SOCS3 regulates cell cycle progression in HCCs (Hep3B, HepG2, Huh7 and SK-HEP-1).
# HCCs and normal cells were treated with 10 uM protein (Non-CP-SOCS3 (HS3B) and iCP-SOSC3 (HM165S3B)) for 8 hrs. After the treatment, cells were washed twice with cold PBS and re-suspended in 1 ml cold PBS, fixed in cold 70% ethanol, washed with cold PBS twice and re-suspended in PI master mix (PI 10 ug/ml (SIGMA, USA), 50 ug/ml RNase A (Invitrogen, USA) in staining buffer) at a final cell density of 2×10^5 cell/ml. The cell mixtures were incubated 30 min in the dark at 4° C. Flow cytometric analysis was immediately performed using a guava easyCyte™ 8 Instrument (Merck Millipore, Darmstadt, Germany).
# Hep3B2.1-7 tumor = assay: Anti-tumor activity in cell-derived xenograft model; type: in vivo, Balb/c nu/nu mice; conditions: IV 600 μg/head for 21 days
# Description: Female Balb/c^nu/nu mice (5-week-old, Doo-Yeol Biotech Co. Ltd. Korea) were subcutaneously implanted with Hep3B2.1-7 tumor block (1 mm^3) into the left back side of the mouse. […] Tumor size was monitored by measuring the longest (length) and shortest dimensions (width) once a day with a dial caliper, and tumor volume was calculated as width2×length×0.5.
# RAW 264.7 cells [2] = assay: Mechanism of aMTD-mediated uptake (EDTA, proteinase K, taxol, antimycin, temperature; flow cytometry); type: cell-based; conditions: for protein uptake after proteinase K pretreatment: 5 ug/ml proteinase K 10 minutes; for protein uptake after taxol pretreatment: 20 uM taxol 30 minutes
# Description: The mechanism of basic CPP (TAT and PolyR)-mediated intracellular delivery was also investigated in the same manner as in Example 7-1 and Example 14-2.
# (1) RAW 264.7 cells were pretreated with 100 mM EDTA for 3 hours, and then treated with 10 uM of iCP-SOCS3 (HM165S3B) protein for 1 hour, followed by flow cytometry in the same manner as in Example 7-1 (FIG. 51A).
# (2) RAW 264.7 cells were pretreated with 5 ug/ml of proteinase K for 10 minutes, and then treated with 10 uM of iCP-SOCS3 (HM165S3B) protein for 1 hour, followed by flow cytometry (FIG. 51B).
# (3) RAW 264.7 cells were pretreated with 20 uM taxol for 30 minutes, and then treated with 10 uM of iCP-SOCS3 (HM165S3B) protein for 1 hour, followed by flow cytometry (FIG. 52A).
# (4) RAW 264.7 cells were pretreated with 1 mM ATP and 10 uM antimycin singly or in combination for 2 hours, and then treated with 10 uM of iCP-SOCS3 (HM165S3B) protein for 1 hour, followed by flow cytometry (FIG. 52B).
# (5) RAW 264.7 cells were left at 4° C. and 37° C. for 1 hour, respectively, and then treated with 10 uM of iCP-SOCS3 (HM165S3B) protein for 1 hour, followed by flow cytometry (FIG. 53).
# RAW 264.7 cells [3] = assay: Cell-to-cell protein transfer (flow cytometry); type: cell-based
# Description: For this, RAW 264.7 cells were treated with 5 μM of FITC-labeled HM165S3B, HTS3B for 2 hour and washed with PBS two times. Thereafter, they were seeded on PANC-1 cell, incubated for 2 hours and treated with 20 ng/ml of IFN-γ for 15 minutes, followed by Western blotting in the same manner as in Example 8-1. And Cell-to-cell protein transfer was assessed by flow cytometry.
# For this, RAW 264.7 cells were treated with 10 uM of FITC-labeled iCP-SOCS3 (HM165S3B) protein for 1 hour. Thereafter, these cells were co-cultured with PerCP-Cy5.5-CD 14-stained RAW 264.7 cells for 2 hours. Cell-to-cell protein transfer was assessed by flow cytometry, scoring for CD14/FITC double-positive cells.
# [4] = tested on: Hep3B2.1-7 hepatocellular carcinoma cells; assay: Anti-proliferative activity, CellTiter-Glo, hepatocellular carcinoma cells; type: cell-based, human; conditions: 10 μM, 96 hrs, compared to vehicle
# Description: Cells originated from human hepatocellular carcinoma cell (Hep3B, HepG2, Huh-7, SK-Hep1), human normal cells (HEK293, HaCaT, Chang liver cell) and mouse fibroblast (NIH3T3) were purchased from ATCC (Manassas, Va., USA) and KCLB (Seoul, Korea). All the cells were maintained as recommended by the supplier. These cells (3×10^3/well) were seeded in 96 well plates. The next day, cells were treated with DMEM (vehicle) or 10 μM recombinant SOCS3 proteins for 96 hrs in the presence of serum (2%). Proteins were replaced daily. Cell growth and survival were evaluated with the CellTiter-Glo Cell Viability Assay (Promega, Madison, Wis.). Measurements using a Luminometer (Turner Designs, Sunnyvale, Calif.) were conducted following the manufacturer's protocol.
# HepG2 cells = assay: Invasion assay (matrigel-coated Transwell); type: cell-based, human; conditions: 24 hrs, compared with the control proteins
# Description: The lower surface of Transwell inserts (Costar) was coated with 0.1% gelatin, the upper surface of Transwell inserts was coated with matrigel (40 μg per well; BD Pharmingen, San Diego, Calif., USA), and the membranes were allowed to dry for 1 hr at room temperature. The Transwell inserts were assembled into a 24-well plate, and the lower chamber was filled with growth media containing 10% FBS and FGF2 (40 ng/ml). Cells (5×10^5) were added to each upper chamber, and the plate was incubated at 37° C. in a 5% CO2 incubator for 24 hrs. Migrated cells were stained with 0.6% hematoxylin and 0.5% eosin and counted.
# Huh7 cells = assay: Induction of apoptosis, TUNEL assay; type: cell-based, human; conditions: 10 μM, 24 hr, 2% fetal bovine serum
# Description: (§1) Apoptotic cells were analyzed using terminal dUTP nick-end labeling (TUNEL) assay with In Situ Cell Death Detection kit TMR red (Roche, 4056 Basel, Switzerland). Cells were treated for 24 hr with 10 μM HS3B or HM165S3B proteins with 2% fetal bovine serum and apoptotic cells were visualized by TUNEL staining. Treated cells were washed with cold PBS two times, fixed in 4% paraformaldehyde (PFA, Junsei, Tokyo, Japan) for 1 hr at room temperature, and incubated in 0.1% Triton X-100 for 2 min on the ice. Cells were washed with cold PBS twice, and treated TUNEL reaction mixture for 1 hr at 37° C. in dark, washed cold PBS three times and observed by fluorescence microscopy (Nikon, Tokyo, Japan). Cisplatin® (IC50: 30 μM) was used for reference drug.
# Chang liver cells = assay: Induction of apoptosis, TUNEL assay; type: cell-based, human; conditions: 10 μM, 24 hr, 2% fetal bovine serum
# Description: as §1
# [5] = then 10 uM protein 1 hour, listed as aMTD165/SD-fused SOCS3 recombinant proteins
molecule,measurement,setting,value
B1,cell cycle progression in HCCs,[1],efficiently inhibited cell cycle progression
same,tumor growth inhibition at day 21,Hep3B2.1-7 tumor,80%
same,tumor growth inhibition at day 35,Hep3B2.1-7 tumor; 2 weeks after termination,70%
same,protein uptake after proteinase K pretreatment,RAW 264.7 cells [2]; then 10 uM protein 1 hour,essentially unaffected
same,protein uptake after proteinase K pretreatment,RAW 264.7 cells [2]; [5],independent to cell surface receptor
same,protein uptake after taxol pretreatment,RAW 264.7 cells [2]; then 10 uM protein 1 hour,essentially unaffected
same,protein uptake after taxol pretreatment,RAW 264.7 cells [2]; [5],not due to endocytosis
same,protein uptake after antimycin (ATP depletion),"RAW 264.7 cells [2]; 1 mM ATP and 10 uM antimycin 2 hours, then 10 uM protein 1 hour",essentially unaffected
same,protein uptake after EDTA pretreatment,"RAW 264.7 cells [2]; 100 mM EDTA 3 hours, then 10 uM protein 1 hour",blocked
same,protein uptake at low temperature,"RAW 264.7 cells [2]; 4° C. vs 37° C., 10 uM protein 1 hour",blocked
same,cell-to-cell protein transfer (CD14/FITC double-positive cells),"RAW 264.7 cells [3]; 10 uM FITC-labeled protein 1 hour, co-culture with CD14-stained RAW 264.7 cells 2 hours",Efficient cell-to-cell transfer
same,cell-to-cell protein transfer,"RAW 264.7 cells [3]; RAW 264.7 treated with 5 μM FITC-labeled protein 2 hour, seeded on PANC-1 cell 2 hours",efficient cell-to-cell transfer
same,cytotoxicity to Hep3B2.1-7 cells,[4],over 80%
same,"invasion, HepG2",HepG2 cells,remarkable decrease in invasion
same,"induction of apoptosis (TUNEL), Huh7",Huh7 cells,considerably efficient inducer of apoptosis
same,"induction of apoptosis (TUNEL), Chang liver cells",Chang liver cells,did not induce apoptosis
